The source of these data is patent US20030143740, “Processes for transposase mediated integration into mammalian cells” (published 2003).

This data set addresses hyperactive Tn5 transposase (EK54, MA56, LP372) expressed from pMIR86 (UniProt Q46731 Q46731:1-476, E54K,M56A,L372P). Put plainly: cell_activity; NIH3T3 co-transfection. As to conditions: tags: pCI mammalian expression vector; chain copies: 2; PshA I blunt-ended linear transposon, ME inverted repeats at both ends. The text has this: C. Tn5 transposase expressed in eukaryotic cells increases the number of integration events. Plasmid pMIR86 encoding transposase was co-transfected into NIH3T3 cells with transposon plasmid pMIR136 (pSEAP-Tn). The pMIR136 was either linearized with PshA I to form the transposon (SEAP-Tn), or cut with Eco R V/Sse8387 I to remove Tn5 elements from the transposon (SEAP), or left supercoiled (pSEAP-Tn). Control reactions included the same transposon DNA samples but with pCI-Luc (Promega) instead of pMIR86. […] No increase in colonies was observed when linear transposon DNA lacking flanking recognition elements was used.

B1: SEAP-Tn linear transposon with mosaic ends (dsDNA)
DNA 1: CTGTCTCTTATACACATCT
DNA 2: AGATGTGTATAAGAGACAG
Consider B1, for which the activity was 1.6 fold colonies vs control plasmid.
